B1: whirlin-NTR-PDZ1-Hp1 (aa residues 2-265) [mouse] / PCDH15-CD3 C-terminal peptide (biotin-TTDS-MGPWNSLHIPMTKL) [modified: biotin-TTDS (trioxatridecan-succinamic acid spacer) on the N-terminus; biotin-TTDS (trioxatridecan-succinamic acid … (parent complex)
chain 1: GAMGSTSNAQLDGLSVSSSSTGSLGSAAAAAGGGGGAGLRLLSANVRQLHQALTALLSEPEREQFTHCLNAYHARRNVFDLVRTLRVLLDSPVKRRLLPMLRLVIPRSDQLLFDQYTAEGLYLPATTPYRQPAWAAPDGAGPGEVRLVSLRRAKAHEGLGFSIRGGSEHGVGIYVSLVEPGSLAEKEGLRVGDQILRVNDKSLARVTHAEAVKALKGSKKLVLSVYSAGRIPGGYVTNHIYTWVDPQGRSTSPPSSLPQPHGSTLRQREDD
chain 2: MGPWNSLHIPMTKL
B2: whirlin-NTR-PDZ1-Hp1 (aa residues 2-265) [mouse] / CDH23 C-terminal peptide (biotin-TTDS-VIMESPLEITEL) [modified: biotin-TTDS (trioxatridecan-succinamic acid spacer) on the N-terminus; biotin-TTDS (trioxatridecan-succinamic acid spacer) on … (parent complex)
chain 1: B1 chain 1
chain 2: VIMESPLEITEL
B3: whirlin-NTR-PDZ1-Hp1 (aa residues 2-265) [mouse] / PCDH15-CD1 C-terminal peptide (biotin-TTDS-GIDVQPHSQSTSL) [modified: biotin-TTDS (trioxatridecan-succinamic acid spacer) on the N-terminus; biotin-TTDS (trioxatridecan-succinamic acid … (parent complex)
chain 1: B1 chain 1
chain 2: GIDVQPHSQSTSL
B4: whirlin-NTR-PDZ1-Hp1 (aa residues 2-265) [mouse] / PCDH15-CD2 C-terminal peptide (biotin-TTDS-GANSEQYNTAL) [modified: biotin-TTDS (trioxatridecan-succinamic acid spacer) on the N-terminus; biotin-TTDS (trioxatridecan-succinamic acid … (parent complex)
chain 1: B1 chain 1
chain 2: GANSEQYNTAL

One assay covers variants of B1. Put plainly: SPR; whirlin construct at 10 μM; peptide immobilized via N-terminal biotin tag; parent: 29; read off a plot. For orientation: In SPR one partner is held on a chip, and binding of the other changes the refractive index at the surface.
As to chain 1 G160A, the response is roughly 9.5 % site occupancy.

Take chain 1 H208Y: the response was roughly 1.5 % site occupancy.

In a further assay the parent is B2. Briefly: SPR; whirlin construct at 10 μM; peptide immobilized via N-terminal biotin tag; parent: 11; read off a plot.
For the variant chain 1 H208Y, the response was roughly 1 % site occupancy.

For the variant chain 1 G160A, the response is roughly 1.5 % site occupancy.

A further assay covers variants of B3. Briefly: SPR; whirlin construct at 10 μM; peptide immobilized via N-terminal biotin tag; parent: 23; read off a plot.
Take chain 1 H208Y: the response was roughly -1 % site occupancy.

On to chain 1 G160A, for which the response was roughly 2 % site occupancy.

The variants in another assay derive from B4. Put plainly: SPR; whirlin construct at 10 μM; peptide immobilized via N-terminal biotin tag; parent: 15; read off a plot.
For chain 1 H208Y, the response is roughly 0.5 % site occupancy.

chain 1 G160A: the response was roughly 2.5 % site occupancy.
